Here are results for 3 molecules from US20200407456A1 (AP BIOSCIENCES, published 2020).

Assay [1] addresses T1, CD137 expressed on cells (HEK-293F/CD137 cells); PMA/ionomycin-activated Jurkat cells; CD137 reporter HEK293 … (UniProt Q07011 24-255, limits assumed).
T1 construct: whole, on cells; One entry is used for CD137 on transfected HEK293/293F cells and for CD137 induced on Jurkat cells; also called 293F cells stably expressing CD137; CD137-overexpressing HEK-293F cells
The experiment in a line: flow cytometry on HEK-293F/CD137 cells, antibody 50 µg/ml, anti-human Fc-A488. (In general: In flow cytometry, cells or beads pass a laser one at a time.)

Assay [2] deals with T2, recombinant human CD137-ECD-Fc (APBio Inc.) (human, UniProt Q07011 24-186).
T2 construct: extracellular domain; Made by APBio; also called CD137-Fc recombinant protein; recombinant CD137/Fc; not shown: IgG4 Fc
Description: ELISA on coated human CD137-IgG4 Fc. For orientation: In an ELISA, binding on a coated surface is turned into a signal by an enzyme label.

T1 sequence (Q07011 24-255 limits assumed): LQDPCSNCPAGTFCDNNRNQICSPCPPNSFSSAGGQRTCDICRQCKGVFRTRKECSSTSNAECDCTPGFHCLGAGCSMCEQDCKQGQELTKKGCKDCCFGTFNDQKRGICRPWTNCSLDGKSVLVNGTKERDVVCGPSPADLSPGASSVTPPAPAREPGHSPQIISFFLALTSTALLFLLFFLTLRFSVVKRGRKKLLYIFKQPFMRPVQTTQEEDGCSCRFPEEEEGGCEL
T2 sequence (Q07011 24-186): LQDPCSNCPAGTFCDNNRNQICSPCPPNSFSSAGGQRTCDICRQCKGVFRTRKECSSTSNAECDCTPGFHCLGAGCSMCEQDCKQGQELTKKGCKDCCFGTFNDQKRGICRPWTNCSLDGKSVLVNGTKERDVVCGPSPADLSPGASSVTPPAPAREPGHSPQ

B1: anti-CD137 antibody clone 15 (antibody, human IgG4 S228P, lambda, V domains shown)
VH: QVQLVQSGAEVKKPGSSVKVSCKASGGTFSSYAISWVRQAPGQGLEWMGRIIPILGIANYAQKFQGRVTITADKSTSTAYMELSSLRSEDTAVYYCASDLYQLLFPYYYGMDVWGQGTTVTVSS
VL: QLVLTQPPSASASLGASVTLTCTLSSGYSNYKVDWYQQRPGKGPRFVMRVGTGGIVGSKGDGIPDRFSVLGSGLNRYLTIKNIQEEDESDYHCGADHGSGSNLFWVFGGGTKLTVLG
notes: also called CD137 #15; anti-CD137#15
For B1, the binding result in assay [1] was “binds”.

B2: anti-CD137 antibody clone 54 (antibody, human IgG4 S228P, lambda, V domains shown)
VH: QVQLVQSGAEVKKPGSTVKVSCKASGGTFSSYAISWVRQAPGQGLEWMGRIIPILGIANYAQKFQGRVTITADKSTSTAYMELSSLRSEDTAVYYCASPPYYDSSGYYPLGAFDIWGQGTMVTVSS
VL: SYELTQPPSVSVSPGQTASITCSGDKLGEKYASWYQQKAGQSPILVIYQDSKRPSGIPERFSGSNSGNTATLTISGLQAGDEADYYCQAWDGSSTYVFGTGTKVTVFG
notes: also called CD137 #54; CD137#54
As for B2, the binding result in assay [1] and in assay [2] was “binds” in each case.

B3: anti-CD137 antibody clone 31 (antibody, human IgG4 S228P, lambda, V domains shown)
VH: not shown
VL: QSALTQPASVSGSPGQSITISCTGTSSDVGAYNFVSWYQQRPGKAPELMIYDVSDRPSGVSNRFSGSKSGNTASLTISGLQTEDEADYYCSSYTSSITRYVFGTGTKVTVLG
notes: also called CD137 #31; anti-CD137#31
As for B3, the binding result in assay [1] and in assay [2] was “binds” throughout.
